The values below come from paper PMC10634658.

The target in test [1] is BLUF-α3 (PAC-BLUF domain with the α3-helix of OaPAC, residues 1-126) (Oscillatoria acuminata). As to the kind of experiment: SEC; Superdex 200 Increase 10/300, PBS, room temperature, 50 μM, 100 μl injected; dark state and light state (column irradiated with a Xe lamp); mass calibrated with a gel filtration standard.
The target is the same in test [2]. As to the kind of experiment: transient grating (diffusion coefficient); 80 μM protein, 23 °C, excitation at 462 nm; diffusion coefficients of reactant (dark) and photoproduct (light) compared with those expected for monomer and dimer.
For test [3], the target named is PAC-BLUF (BLUF domain of OaPAC, residues 1-102) (Oscillatoria acuminata). As to the kind of experiment: SEC; Superdex 200 Increase 10/300, PBS, room temperature, 50 μM, 100 μl injected; dark state and light state (column irradiated with a Xe lamp); mass calibrated with a gel filtration standard.
Test [4] shares this target. The test is described as follows: transient grating (diffusion coefficient); 80 μM protein, 23 °C, excitation at 462 nm; diffusion coefficients of reactant (dark) and photoproduct (light) compared with those expected for monomer and dimer.
Test [5] concerns the target full-length OaPAC (photoactivated adenylate cyclase from Oscillatoria acuminata) (Oscillatoria acuminata). The test is described as follows: SEC; Superdex 200 Increase 10/300, PBS, room temperature, 50 μM, 100 μl injected; dark state and light state (column irradiated with a Xe lamp); mass calibrated with a gel filtration standard.
The target is the same in test [6]. The test is described as follows: SAXS; Photon Factory BL-15A2, flowing sample, dark state and light state (450 nm diode laser); molecular mass from the Guinier plot (80 kDa).
The target is the same in test [7]. As to the kind of experiment: transient grating (diffusion coefficient); 80 μM protein, 23 °C, excitation at 462 nm; diffusion coefficients of reactant (dark) and photoproduct (light) compared with those expected for monomer and dimer.

Turning to “BLUF-α3 (PAC-BLUF domain with the α3-helix of OaPAC, residues 1-126) (domain or fragment)”, the stoichiometry N in test [1] and in test [2] was 2 each time.

As for “PAC-BLUF (BLUF domain of OaPAC, residues 1-102) (domain or fragment)”, the stoichiometry N in test [3] and in test [4] was 2 each time.

As for “full-length OaPAC (photoactivated adenylate cyclase from Oscillatoria acuminata) (enzyme)”, the stoichiometry N in test [5], in test [6] and in test [7] was 2 in each case.
